Patent US20090175866A1, “TREATMENT OF B-CELL MALIGNANCIES” (priority 2004, published 2009)

Experiments:
[1] = target: FGFR3 (as measured by BIAcore, Table 1) (UniProt P22607); assay: BIAcore
[2] = target: FGFR3 (as measured by BIAcore, Table 1) (UniProt P22607); assay: BIAcore (receptor not given)
[3] = target: FGFR3-G394D expressed on B9 cells, P22607; assay: cell-based or functional assay
Chain of FGFR3-G394D expressed on B9 cells, P22607 (P22607 23-806, stated change not applied): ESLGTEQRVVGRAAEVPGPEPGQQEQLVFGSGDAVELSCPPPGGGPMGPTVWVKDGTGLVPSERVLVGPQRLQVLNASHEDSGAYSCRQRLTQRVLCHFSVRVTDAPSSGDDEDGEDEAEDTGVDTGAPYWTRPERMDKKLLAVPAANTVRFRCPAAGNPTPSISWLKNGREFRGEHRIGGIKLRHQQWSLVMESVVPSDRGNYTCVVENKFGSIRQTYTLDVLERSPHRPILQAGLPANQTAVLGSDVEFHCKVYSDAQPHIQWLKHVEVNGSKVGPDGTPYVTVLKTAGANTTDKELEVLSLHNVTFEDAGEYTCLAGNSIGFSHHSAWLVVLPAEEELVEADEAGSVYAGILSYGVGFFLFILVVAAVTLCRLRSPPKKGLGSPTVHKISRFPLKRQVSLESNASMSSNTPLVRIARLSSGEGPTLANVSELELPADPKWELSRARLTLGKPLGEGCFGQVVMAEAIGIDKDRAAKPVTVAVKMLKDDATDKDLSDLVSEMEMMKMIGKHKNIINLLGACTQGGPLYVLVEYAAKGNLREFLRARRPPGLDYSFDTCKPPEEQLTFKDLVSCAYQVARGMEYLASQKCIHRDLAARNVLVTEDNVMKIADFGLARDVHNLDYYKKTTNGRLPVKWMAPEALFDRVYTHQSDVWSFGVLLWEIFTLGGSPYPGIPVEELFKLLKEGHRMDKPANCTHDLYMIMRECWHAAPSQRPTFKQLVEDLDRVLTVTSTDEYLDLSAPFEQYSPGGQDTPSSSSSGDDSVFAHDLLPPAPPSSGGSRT

Kd [1] [nM]	koff [2] [s⁻¹]	IC50 of FGF-stimulated growth of B9 cells expressing G394D-FGFR3 [3] [mg/L]	Binder
4	0.0005		PRO-026 (Fab, V domains shown) VH: QVQLVQSGAEVKKPGASVKVSCKASGYTFTSYYMHWVRQAPGQGLEWMGWINPNSGGTNYAQKFQGRVTMTRDTSISTAYMELSSLRSEDTAVYYCARGYWYAYFTYINYGYFDNWGQGTLVTVSS VL: DIALTQPASVSGSPGQSITISCTGTSSDVGGYNYVSWYQQHPGKAPKLMIYDVSNRPSGVSNRFSGSKSGNTASLTISGLQAEDEADYYCQSYDNNSDVVFGGGTKLTVLG
2.9	0.00074		PRO-055 (Fab, V domains shown) VH: QVQLVQSGAEVKKPGASVKVSCKASGYTFTSYYMHWVRQAPGQGLEWMGWINPNSGGTNYAQKFQGRVTMTRDTSISTAYMELSSLRSEDTAVYYCARSMNSTMYWYLRRVLFDHWGQGTLVTVSS VL: DIALTQPASVSGSPGQSITISCTGTSSDVGGYNYVSWYQQHPGKAPKLMIYDVSNRPSGVSNRFSGSKSGNTASLTISGLQAEDEADYYCQSYDMYNYIVFGGGTKLTVLG
37	0.02		PRO-002 (Fab, V domains shown) VH: QVQLVQSGAEVKKPGASVKVSCKASGYTFTSYYMHWVRQAPGQGLEWMGWINPNSGGTNYAQKFQGRVTMTRDTSISTAYMELSSLRSEDTAVYYCARDFLGYEFDYWGQGTLVTVSS VL: DIELTQPPSVSVAPGQTARISCSGDALGDKYASWYQQKPGQAPVLVIYDDSDRPSGIPERFSGSNSGNTATLTISGTQAEDEADYYCQSYDYSADYVFGGGTKLTVLG
3.7	0.002		PRO-054 (Fab, V domains shown) VH: QVQLVQSGAEVKKPGASVKVSCKASGYTFTSYYMHWVRQAPGQGLEWMGWINPNSGGTNYAQKFQGRVTMTRDTSISTAYMELSSLRSEDTAVYYCARNMAYTNYQYVNMPHFDYWGQGTLVTVSS VL: DIELTQPPSVSVAPGQTARISCSGDALGDKYASWYQQKPGQAPVLVIYDDSDRPSGIPERFSGSNSGNTATLTISGTQAEDEADYYCQSYDYFKLVFGGGTKLTVLG
14	0.0023		PRO-012 (Fab, V domains shown) VH: QVQLKESGPALVKPTQTLTLTCTFSGFSLSTSGVGVGWIRQPPGKALEWLALIDWDDDKYYSTSLKTRLTISKDTSKNQVVLTMTNMDPVDTATYYCARYHSWYEMGYYGSTVGYMFDYWGQGTLVTVSS VL: DIELTQPPSVSVAPGQTARISCSGDALGDKYASWYQQKPGQAPVLVIYDDSDRPSGIPERFSGSNSGNTATLTISGTQAEDEADYYCQSYDFDFAVFGGGTKLTVLG
6	0.0014		PRO-029 (Fab, V domains shown) VH: QVQLVQSGAEVKKPGASVKVSCKASGYTFTSYYMHWVRQAPGQGLEWMGWINPNSGGTNYAQKFQGRVTMTRDTSISTAYMELSSLRSEDTAVYYCARTWQYSYFYYLDGGYYFDIWGQGTLVTVSS VL: DIVLTQSPATLSLSPGERATLSCRASQSVSSSYLAWYQQKPGQAPRLLIYGASSRATGVPARFSGSGSGTDFTLTISSLEPEDFATYYCQQTNNAPVTFGQGTKVEIKR
		3	PRO-001 Fab (Fab, V domains shown) VH: QVQLQQSGPGLVKPSQTLSLTCAISGDSVSSNSAAWNWIRQSPGRGLEWLGRTYYRSKWYNDYAVSVKSRITINPDTSKNQFSLQLNSVTPEDTAVYYCARSYYPDFDYWGQGTLVTVSS VL: DIELTQPPSVSVAPGQTARISCSGDALGDKYASWYQQKPGQAPVLVIYDDSDRPSGIPERFSGSNSGNTATLTISGTQAEDEADYYCQSYDGPDLWVFGGGTKLTVLGQ
